# Measured values published in patent US20200199241A1 (Chugai, published 2020).
# Substitutions are numbered along the chain they refer to. Names may count otherwise.
# T1: FcγRIIb (human, UniProt P31994 43-217, limits assumed)
# T1 construct: SPR analyte; also called FcγIIB; CD32
# T1 sequence: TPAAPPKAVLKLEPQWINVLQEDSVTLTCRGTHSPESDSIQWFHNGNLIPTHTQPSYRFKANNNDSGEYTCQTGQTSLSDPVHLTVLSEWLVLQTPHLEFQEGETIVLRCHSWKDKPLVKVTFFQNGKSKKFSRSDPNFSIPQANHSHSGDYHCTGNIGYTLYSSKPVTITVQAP
# T2: FcγRIIb (human, UniProt P31994 43-217, limits assumed)
# T2 construct: also called FcγIIB; CD32
# T2 sequence: T1 sequence
# T3: FcγRIIa type H (human, UniProt P12318 36-217)
# T3 construct: also called FcγRIIaH; FcγRIIH
# T3 sequence: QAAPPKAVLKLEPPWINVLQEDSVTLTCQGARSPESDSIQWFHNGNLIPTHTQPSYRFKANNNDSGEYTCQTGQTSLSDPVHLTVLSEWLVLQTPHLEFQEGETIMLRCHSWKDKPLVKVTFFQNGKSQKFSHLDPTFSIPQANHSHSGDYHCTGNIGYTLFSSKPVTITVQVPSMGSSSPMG
# T4: FcγRIIb (human, UniProt P31994 43-217, limits assumed)
# T4 construct: also called FcgRIIb; FcγIIB
# T4 sequence: T1 sequence
# T5: FcγRIIa type H (human, UniProt P12318 36-217)
# T5 construct: SPR analyte; also called FcγRIIaH
# T5 sequence: T3 sequence
# T6: FcγRIIa type R (human, UniProt P12318 36-217)
# T6 construct: SPR analyte; also called FcγRIIaR; FcγRIIa(R)
# T6 chain: T3 sequence with H133R
# T7: FcγRIIa type R (human, UniProt P12318 36-217)
# T7 construct: also called FcγRIIaR; FcγRIIa(R)
# T7 chain: T3 sequence with H133R
# T8: FcγRIIa type H (human, UniProt P12318 36-217)
# T8 construct: also called FcγRIIaH; FcγRIIa(H)
# T8 sequence: T3 sequence
# T9: human FcγRIIa type H (human, UniProt P12318 36-217)
# T9 construct: also called FcγRIIaH; FcγRIIa(H)
# T9 sequence: T3 sequence
# T10: human FcγRIIb (human, UniProt P31994 43-217, limits assumed)
# T10 construct: also called FcγIIB
# T10 sequence: T1 sequence
# T11: human FcγRIIa type R (human, UniProt P12318 36-217)
# T11 construct: also called FcγRIIaR; FcγRIIa(R)
# T11 chain: T3 sequence with H133R
# B1: IL6R-BP181/IL6R-L (antibody, human IgG1)
# heavy: QVQLQESGPGLVKPSETLSLTCAVSGHSISHDHAWSWVRQPPGEGLEWIGFISYSGITNYNPSLQGRVTISRDNSKNTLYLQMNSLRAEDTAVYYCARSLARTTAMDYWGEGTLVTVSSASTKGPSVFPLAPSSKSTSGGTAALGCLVKDYFPEPVTVSWNSGALTSGVHTFPAVLQSSGLYSLSSVVTVPSSSLGTQTYICNVNHKPSNTKVDKKVEPKSCDKTHTCPPCPAPDLLGGDSVFLFPPKPKDTLMISRTPEVTCVVVDVSHEDGEVKFNWYVDGVEVHNAKTKPREEQYNSTYRVVSVLTVLHQDWLNGKEYKCKVSNAALPKPIEKTISKAKGQPREPQVYTLPPSRDELTKNQVSLTCLVKGFYPSDIAVEWESNGQPENNYKTTPPVLDSDGSFFLYSKLTVDKSRWQQGNVFSCSVMHEALHNHYTQESLSLSP
# light: DIQMTQSPSSLSASVGDRVTITCRASQDISSYLNWYQQKPGKAPKLLIYYTSRLHSGVPSRFSGSGSGTDFTFTISSLQPEDIATYYCQQGNTLPYTFGQGTKVEIK
# B2: IL6R-BP176/IL6R-L (antibody, human IgG1)
# heavy: B1 heavy with G273P, A328D
# light: B1 light
# B3: IL6R-BP199/IL6R-L (antibody, human IgG1)
# heavy: B1 heavy with G273P, A328D, K332R
# light: B1 light
# notes: Anti-IL-6R human IgG1 variant; copies: 2 + 2
# B4: IL6R-BP205/IL6R-L (antibody, human IgG1)
# heavy: B1 heavy with Y298D, A328K, K332R
# light: B1 light
# notes: as for B3
# B5: IL6R-BP193/IL6R-L (antibody, human IgG1)
# heavy: B1 heavy with H270D, A328K
# light: B1 light
# notes: as for B3
# B6: IL6R-BP192/IL6R-L (antibody, human IgG1)
# heavy: B1 heavy with H270D, Y298D, A328K
# light: B1 light
# notes: as for B3
# B7: IL6R-BP202/IL6R-L (antibody, human IgG1)
# heavy: B1 heavy with D235E, G239D, K332R
# light: B1 light
# notes: as for B3
# B8: IL6R-BP210/IL6R-L (antibody, human IgG1)
# heavy: B1 heavy with D235E, G239D, H270D, A328K, K332R
# light: B1 light
# notes: as for B3
# B9: IL6R-BP204/IL6R-L (antibody, human IgG1)
# heavy: B1 heavy with K332R
# light: B1 light
# notes: as for B3
# B10: IL6R-BP201/IL6R-L (antibody, human IgG1)
# heavy: B1 heavy with G239D, A328K, K332R
# light: B1 light
# notes: as for B3
# B11: IL6R-BP212/IL6R-L (antibody, human IgG1)
# heavy: B1 heavy with H270D, Y298D, A328K, K332R
# light: B1 light
# notes: as for B3
# B12: IL6R-BP142/IL6R-L (antibody, human IgG1)
# heavy: B1 heavy with D235E, G273P, A328N, K332A
# light: B1 light
# notes: IgG1; Fc variant of IL6R-B3; copies: 2 + 2
# B13: IL6R-BP136/IL6R-L (antibody, human IgG1)
# heavy: B1 heavy with D235E, G273P, K332A
# light: B1 light
# notes: as for B12
# B14: IL6R-2B002/IL6R-L (antibody, human IgG1)
# heavy: B1 heavy with G273P, A328K, K332A
# light: B1 light
# notes: as for B12
# B15: IL6R-BP112/IL6R-L (antibody, human IgG1)
# heavy: B1 heavy with D235E, A328K, K332A
# light: B1 light
# notes: Alteration introduced into IL6R-B3; also called P238D/P271G
# B16: IL6R-BP136/IL6R-L (antibody, human IgG1)
# heavy: B1 heavy with D235E, G273P, K332A
# light: B1 light
# notes: Alteration introduced into IL6R-B3; also called P238D/K326A
# B17: IL6R-BP117/IL6R-L (antibody, human IgG1)
# heavy: B1 heavy with D235E, G273P, A328D, K332A
# light: B1 light
# notes: Alteration introduced into IL6R-B3; also called P238D/K326D
# B18: IL6R-BP126/IL6R-L (antibody, human IgG1)
# heavy: B1 heavy with D235E, G273P, A328L, K332A
# light: B1 light
# notes: Alteration introduced into IL6R-B3; also called P238D/K326L
# B19: IL6R-BP120/IL6R-L (antibody, human IgG1)
# heavy: B1 heavy with D235E, G273P, A328E, K332A
# light: B1 light
# notes: Alteration introduced into IL6R-B3; also called P238D/K326E
# Molecular target: T1, FcγRIIb
# Assay: ratio of SPR KDs; reference IL6R-B3/IL6R-L
# From the text: (§1) Furthermore, KD(IIaR)/KD(IIb) and KD(IIaH)/KD(IIb) in the table respectively represent the value obtained by dividing the KD value of each variant for FcγRIIaR by the KD value of each variant for FcγRIIb, and the value obtained by dividing the KD value of each variant for FcγRIIaH by the KD value of each variant for FcγRIIb. KD(IIb) of the parent polypeptide/KD(IIb) of the altered polypeptide refers to the value obtained by dividing the KD value of the parent polypeptide for FcγRIIb by the KD value of each variant for FcγRIIb.
row,KD(IIb) of the parent polypeptide/KD(IIb) of altered polypeptide,Binder
1,19.3,B1
2,8.6,B2

# Molecular target: T2, FcγRIIb
# Assay: ratio of SPR KD values, parent IL6R-B3/IL6R-L
# From the text: as §1
row,KD(IIb) of the parent polypeptide/KD(IIb) of altered polypeptide [fold],Binder
1,6.3,B3
2,19.4,B4
3,25.5,B5
4,27.3,B6
5,48.4,B7
6,78.4,B8
7,12.2,B9
8,77.1,B10
9,18.7,B11

# Molecular target: T3, FcγRIIa type H
# Assay: SPR (Biacore), FcγR over captured antibody
row,Kd [nM],Binder
1,93000,B12
2,38000,B13
3,86000,B14

# Molecular target: T4, FcγRIIb
# Assay: SPR (Biacore), FcγR over captured antibody
row,Kd [nM],Binder
1,1200,B12
2,800,B13
3,930,B14

# Molecular target: T12, FcγRIIIa type V (human, UniProt P08637 17-208, limits assumed)
# T12 construct: also called FcγRIIIaV; FcgRIIIaV
# Assay: SPR (Biacore), FcγR over captured antibody
# T12 sequence (P08637 other isoform, or with tags, fused parts or gaps limits assumed): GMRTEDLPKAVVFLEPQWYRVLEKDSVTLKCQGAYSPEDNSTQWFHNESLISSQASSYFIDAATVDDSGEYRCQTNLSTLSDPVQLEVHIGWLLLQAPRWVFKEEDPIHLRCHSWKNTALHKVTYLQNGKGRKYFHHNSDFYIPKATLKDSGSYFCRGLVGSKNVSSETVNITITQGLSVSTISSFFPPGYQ
row,Kd [nM],Binder
1,110000,B12
2,69000,B13
3,53000,B14

# Molecular target: T13, FcγRIa (human, UniProt P12314 16-292, limits assumed)
# T13 construct: also called FcgRIa; CD64
# Assay: SPR (Biacore), FcγR over captured antibody
# T13 sequence (P12314 16-292 limits assumed): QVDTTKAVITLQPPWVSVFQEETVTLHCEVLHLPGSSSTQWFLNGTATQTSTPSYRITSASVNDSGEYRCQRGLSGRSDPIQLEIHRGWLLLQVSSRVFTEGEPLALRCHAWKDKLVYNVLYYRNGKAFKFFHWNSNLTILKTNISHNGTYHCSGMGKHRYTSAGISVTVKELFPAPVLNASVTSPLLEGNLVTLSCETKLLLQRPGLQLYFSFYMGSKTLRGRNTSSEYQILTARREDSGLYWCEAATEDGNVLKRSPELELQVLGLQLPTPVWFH
row,Kd [nM],Binder
1,5.3,B12
2,6.6,B13
3,6.4,B14

# Molecular target: T5, FcγRIIa type H
# Assay: SPR (Biacore), antibody captured, FcγR analyte
# From the text: as §1
row,Kd [nM],Binder
1,26000,B1
2,30000,B2

# Molecular target: T1, FcγRIIb
# Assay: SPR (Biacore), antibody captured, FcγR analyte
# From the text: as §1
row,Kd [nM],Binder
1,160,B1
2,360,B2

# Molecular target: T14, FcγRIa (human, UniProt P12314 16-292, limits assumed)
# T14 construct: SPR analyte; also called CD64
# Assay: SPR (Biacore), antibody captured, FcγR analyte
# T14 sequence (P12314 16-292 limits assumed): as above
# From the text: as §1
row,Kd [nM],Binder
1,7.5,B1
2,7.3,B2

# Molecular target: T15, FcγRIIIa type V (human, UniProt P08637 17-208, limits assumed)
# T15 construct: SPR analyte; allotype V158 was used here; also called FcγRIIIaV; FcγRIIIa(V)
# Assay: SPR (Biacore), antibody captured, FcγR analyte
# T15 sequence (P08637 other isoform, or with tags, fused parts or gaps limits assumed): as the sequence (P08637 other isoform, or with tags, fused parts or gaps limits assumed) above
# From the text: as §1
row,Kd [nM],Binder
1,57000,B1
2,54000,B2

# Molecular target: T6, FcγRIIa type R
# Assay: SPR (Biacore), antibody captured, FcγR analyte
# From the text: as §1
row,Kd [nM],Binder
1,3200,B1
2,6900,B2

# Molecular target: T7, FcγRIIa type R
# Assay: SPR (Biacore), method of Example 14
row,Kd [nM],Binder
1,3500,B4
2,2600,B6
3,1200,B7
4,1000,B8
5,4500,B9
6,840,B10
7,3500,B11

# Molecular target: T8, FcγRIIa type H
# Assay: SPR (Biacore), method of Example 14
row,Kd [nM],Binder
1,26000,B3
2,28000,B4
3,25000,B5
4,32000,B6
5,92000,B7
6,95000,B8
7,21000,B9
8,69000,B10
9,22000,B11

# Molecular target: T2, FcγRIIb
# Assay: SPR (Biacore), method of Example 14
row,Kd [nM],Binder
1,490,B3
2,160,B4
3,120,B5
4,110,B6
5,64,B7
6,39,B8
7,250,B9
8,40,B10
9,170,B11

# Molecular target: T16, FcγRIa (human, UniProt P12314 16-292, limits assumed)
# T16 construct: also called CD64
# Assay: SPR (Biacore), method of Example 14
# T16 sequence (P12314 16-292 limits assumed): as the sequence (P12314 16-292 limits assumed) above
row,Kd [nM],Binder
1,6.4,B3
2,7.7,B4
3,6.3,B5
4,6.6,B6
5,95,B7
6,65,B8
7,7.6,B9
8,51,B10
9,5.2,B11

# Molecular target: T9, human FcγRIIa type H
# Assay: SPR (Biacore), binding amount relative to IL6R-BF648/IL6R-L = 100
row,relative binding,Binder
1,113,B15
2,103,B16
3,96,B17
4,132,B18

# Molecular target: T10, human FcγRIIb
# Assay: as above
row,relative binding,Binder
1,157,B15
2,119,B16
3,118,B17
4,114,B19
5,103,B18

# Molecular target: T17, human FcγRIa (human, UniProt P12314 16-292, limits assumed)
# T17 construct: also called CD64
# T17 sequence (P12314 16-292 limits assumed): as above
# Assay: as above
row,relative binding,Binder
1,119,B15
2,117,B16
3,124,B17
4,125,B19
5,113,B18

# Molecular target: T11, human FcγRIIa type R
# Assay: as above
row,relative binding,Binder
1,340,B15
2,159,B16
3,166,B17
4,175,B19
5,167,B18
